Laboratory results: patent publication US20220213209A1 (JOINT STOCK COMPANY BIOCAD, published 2022)
Where a chain is given by its changes, count along the chain named. Numbers in names are those of the source. Values belong to the binder of their own block, whether it stands above or below them.

Columns and labels:
macaca Cynomolgus GITR = target: T1, macaca Cynomolgus GITR (Macaca cynomolgus); test: BLI OctetRed 96, antigen on AR2G sensors, antibody in solution, 1:1 model
T1 construct: also called cynomolgus monkey GITR; monkey GITR
Protocol: (§1) Binding affinity constants for anti-GITR antibodies and rhesus macaque/cynomolgus monkey GITR were obtained using OctetRed 96 according to manufacturer's (ForteBio) protocol. Antigen 25 μg/ml was non-specifically immobilized onto the surface of amine-reactive sensors of the second generation (AR2G) (ForteBio, using standard protocol according to manufacturer's instructions for preparation and immobilization of AR2G sensors). […] The assay was conducted at 30° C. using PBS comprising 0.1% Tween-20 and 0.1% BSA as a working buffer.
(§2) The resulting sensograms, after subtracting a reference signal, were analyzed using Octet Data Analysis software (Version 8.0) in accordance with the standard procedure and using 1:1 interaction model.

macaca mulatta GITR = target: T2, macaca mulatta GITR (Macaca mulatta, UniProt F7DDV8 20-156); test: as above
T2 construct: also called rhesus macaque GITR; mcyGITR Macaca mulatta
T2 sequence: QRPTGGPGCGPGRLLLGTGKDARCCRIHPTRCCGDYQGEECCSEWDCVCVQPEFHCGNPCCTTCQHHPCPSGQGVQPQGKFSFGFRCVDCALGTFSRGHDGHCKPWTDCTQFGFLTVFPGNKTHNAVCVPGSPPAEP
Protocol: as §1, §2

[1] = target: T3, recombinant human GITR antigen (extracellular domain) (human, UniProt Q9Y5U5 26-162); test: as above
T3 construct: extracellular domain
T3 sequence (looked up): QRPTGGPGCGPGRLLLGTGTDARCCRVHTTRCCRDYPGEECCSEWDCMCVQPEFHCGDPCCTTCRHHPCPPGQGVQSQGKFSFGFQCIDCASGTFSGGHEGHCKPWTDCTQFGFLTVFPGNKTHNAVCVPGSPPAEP
Protocol: Binding affinity constants for anti-GITR antibody-human/rhesus macaque/cynomolgus monkey GITR interactions were determined using OctetRed 96 according to manufacturer (ForteBio) protocol. Antigen 25 μg/ml was non-specifically immobilized onto the surface of amine-reactive sensors of the second generation (AR2G) (ForteBio, using standard protocol according to manufacturer's instructions for preparation and immobilization of AR2G sensors). […] The assay was conducted at 30° C. using PBS comprising 0.1% Tween-20 and 0.1% BSA as a working buffer.
The resulting sensograms, after subtracting a reference signal, were analyzed using Octet Data Analysis software (Version 8.0) in accordance with the standard procedure and using 1:1 interaction model. All tested antibodies show high affinity and specificity for human GITR.

murine GITR-Fc = target: T4, murine GITR-Fc (Mus musculus, UniProt O35714 20-153); test: ELISA, plate coated with mouse GITR-Fc 0.5 µg/ml, antibody titrated 10 to 0.02 µg/ml
T4 construct: extracellular domain; also called mouse GITR; musGITR
T4 sequence (looked up): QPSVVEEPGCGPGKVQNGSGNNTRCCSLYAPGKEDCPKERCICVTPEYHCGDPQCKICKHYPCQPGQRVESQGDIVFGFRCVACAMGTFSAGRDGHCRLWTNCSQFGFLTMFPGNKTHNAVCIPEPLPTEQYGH
Protocol: ELISA was used to measure relative affinity of antibodies against GITR-Fc from different organisms. For binding assay, ELISA plate wells (medium binding from Greiner bio one) were coated with 50 μl of human/cynomolgus/murine GITR-Fc (0.5 μg/ml in 1× carbonate buffer), sealed and incubated overnight at 4° C. All further steps were performed in accordance with the standard ELISA protocol described in Example 6. […] Therefore, candidate BCD166-01-011 was excluded from further study due to the lack of apparent specificity for the monkey GITR. Candidates BCD166-01-01 and BCD166-01-014 were finalized for further development.

[2] = target: T5, GITR stably expressed on the surface of HEK-293 cells (UniProt Q9Y5U5 26-241); test: cell-based or functional assay
T5 sequence (looked up): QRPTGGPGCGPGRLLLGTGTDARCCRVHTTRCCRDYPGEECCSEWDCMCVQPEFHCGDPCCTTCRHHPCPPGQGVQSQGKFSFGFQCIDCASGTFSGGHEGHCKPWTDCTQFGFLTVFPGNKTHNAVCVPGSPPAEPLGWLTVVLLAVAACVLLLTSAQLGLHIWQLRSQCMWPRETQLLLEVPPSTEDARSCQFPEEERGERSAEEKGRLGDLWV

human FcgRIIb = target: T6, human FcgRIIb (human, UniProt P31994 43-217, biotinylated (site not stated)); test: bio-layer interferometry (OctetRed 96), biotinylated receptor on streptavidin sensors, antibody in solution, pH 7.4 buffer, 30 °C
T6 construct: Biotinylated receptor on streptavidin sensors
T6 sequence (looked up): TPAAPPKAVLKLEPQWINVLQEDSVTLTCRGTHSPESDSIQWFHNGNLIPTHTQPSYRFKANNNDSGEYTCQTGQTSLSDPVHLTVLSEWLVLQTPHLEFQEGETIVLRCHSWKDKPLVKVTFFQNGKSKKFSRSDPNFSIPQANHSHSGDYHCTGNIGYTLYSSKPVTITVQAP
Protocol: (§3) The binding affinity constants for antibody BCD166-02-01-human FcRn, FcgRIIIa158V, FcgRIIIa158F, FcgRIIa131H, FcgRIIa131R, FcgRIIb and FcgRIa interactions were determined using OctetRed 96 (ForteBio). Biotinylated receptors were immobilized on the surface of streptavidin sensors (SA). We conducted and analyzed the association and dissociation between receptors and antibody in a working buffer (PBS containing 0.1% Tween-20 and 0.1% BSA: for FcRn receptor we used pH6 buffer, for the other receptors we used pH 7.4 buffer) at 30° C. The resulting sensograms were analyzed in accordance with 1:1 or 2:1 models, the affinity constants were calculated using Octet Data Analysis Software 8.0 User Guide Copyright 2011©.

human FcgRIIa131R = target: T7, human FcgRIIa131R (human, UniProt P12318 36-218, biotinylated (site not stated)); test: as above
T7 construct: Biotinylated receptor on streptavidin sensors
T7 sequence (looked up): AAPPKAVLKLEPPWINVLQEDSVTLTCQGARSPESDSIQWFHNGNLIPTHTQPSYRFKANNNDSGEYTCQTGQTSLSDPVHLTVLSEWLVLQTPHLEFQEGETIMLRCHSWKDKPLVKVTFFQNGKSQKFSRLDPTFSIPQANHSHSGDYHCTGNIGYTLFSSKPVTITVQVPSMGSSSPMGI
Protocol: as §3

human FcgRIIIa158V = target: T8, human FcgRIIIa158V (human, UniProt P08637 17-208, biotinylated (site not stated)); test: as above
T8 construct: Biotinylated receptor on streptavidin sensors
Protocol: as §3

human FcgRIa = target: T9, human FcgRIa (human, UniProt P12314 16-288, limits assumed, biotinylated (site not stated)); test: as above
T9 construct: Biotinylated receptor on streptavidin sensors
Protocol: as §3

human FcgRIIa131H = target: T10, human FcgRIIa131H (human, UniProt P12318 36-218, biotinylated (site not stated)); test: as above
T10 construct: Biotinylated receptor on streptavidin sensors
T10 sequence (looked up): T7 sequence (looked up) with R132H
Protocol: as §3

human FcgRIIIa158F = target: T11, human FcgRIIIa158F (human, UniProt P08637 17-208, biotinylated (site not stated)); test: as above
T11 construct: Biotinylated receptor on streptavidin sensors
Protocol: as §3

human FcRn = target: T12, human FcRn (human, UniProt P55899 24-297; P61769 21-119, biotinylated (site not stated)); test: bio-layer interferometry (OctetRed 96), biotinylated receptor on streptavidin sensors, antibody in solution, pH 6 buffer, 30 °C
T12 construct: Biotinylated receptor on streptavidin sensors
Protocol: as §3

T8 sequence (P08637 17-208 F176V limits assumed): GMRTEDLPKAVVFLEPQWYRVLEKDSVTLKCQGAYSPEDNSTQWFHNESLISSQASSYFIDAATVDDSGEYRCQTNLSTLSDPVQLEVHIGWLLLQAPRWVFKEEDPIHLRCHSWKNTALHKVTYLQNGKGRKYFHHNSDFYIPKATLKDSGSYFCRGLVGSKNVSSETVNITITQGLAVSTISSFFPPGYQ
T9 sequence (P12314 16-288 limits assumed): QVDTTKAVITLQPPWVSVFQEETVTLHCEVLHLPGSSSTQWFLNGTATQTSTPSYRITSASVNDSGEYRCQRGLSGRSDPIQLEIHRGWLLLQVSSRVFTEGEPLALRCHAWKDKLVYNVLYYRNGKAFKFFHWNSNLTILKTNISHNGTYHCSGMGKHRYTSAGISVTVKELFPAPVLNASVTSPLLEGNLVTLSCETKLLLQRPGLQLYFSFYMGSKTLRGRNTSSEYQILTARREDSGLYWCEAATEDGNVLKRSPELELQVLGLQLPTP
T11 sequence (P08637 17-208 limits assumed): as the sequence (P08637 17-208 F176V limits assumed) above, with V160F counted along it

Kd (macaca Cynomolgus GITR): 55.3 nM
Kd (macaca mulatta GITR): 0.192 nM
Kd [1]: 8.5 nM
binding result (murine GITR-Fc): no binding (tested: 10 µg/ml)
B1: BCD166-01-014 (antibody, human IgG1, lambda, V domains shown)
VH: QVQLVQSGGGLVQPGGSLRLSCAASGFTFSYYWMYWVRQAPGKGLEWVSAISWNGGRTYYAESMKGRFTISRDNAQNTLYLQMNSLKSEDTAVYYCAKNRYYSDPNYGMNLWGKGTTVTVSS
VL: QSALTQPASVSGSPGQSITISCTGTSTDIGTYKYISWYQQHPGKAPKLIIYGVSHRPSGVSDRFSGSKSDNTASLTISGLQAEDEADYYCSSYTSSGTVVFGGGTKVTVLG
notes: Full-length IgG1, lambda light chain; from an immune llama-human CHARM Fab library; also called BCD166-01-14

EC50 in ADCC reporter assay (Jurkat-NFAT-Luc-CD16 effector cells, Hek-293-GITR target cells) [2]: 40 fold, against BCD166-01-01
EC50 in cell agonist assay (HEK293-GITR-NFkB-Luc) [2]: 20 fold, against BCD166-01-01
level of activation in cell agonist assay (HEK293-GITR-NFkB-Luc) [2]: 5 fold, against BCD166-01-01
Kd (human FcgRIIb): 557 nM
Kd (human FcgRIIa131R): 40.2 nM
Kd (human FcgRIIIa158V): 118 nM
Kd (human FcgRIa): 0.723 nM
Kd (human FcgRIIa131H): 72.2 nM
Kd (human FcgRIIIa158F): 1420 nM
Kd (human FcRn): 27 nM
B2: BCD166-02-01 (antibody, human IgG1, kappa)
heavy: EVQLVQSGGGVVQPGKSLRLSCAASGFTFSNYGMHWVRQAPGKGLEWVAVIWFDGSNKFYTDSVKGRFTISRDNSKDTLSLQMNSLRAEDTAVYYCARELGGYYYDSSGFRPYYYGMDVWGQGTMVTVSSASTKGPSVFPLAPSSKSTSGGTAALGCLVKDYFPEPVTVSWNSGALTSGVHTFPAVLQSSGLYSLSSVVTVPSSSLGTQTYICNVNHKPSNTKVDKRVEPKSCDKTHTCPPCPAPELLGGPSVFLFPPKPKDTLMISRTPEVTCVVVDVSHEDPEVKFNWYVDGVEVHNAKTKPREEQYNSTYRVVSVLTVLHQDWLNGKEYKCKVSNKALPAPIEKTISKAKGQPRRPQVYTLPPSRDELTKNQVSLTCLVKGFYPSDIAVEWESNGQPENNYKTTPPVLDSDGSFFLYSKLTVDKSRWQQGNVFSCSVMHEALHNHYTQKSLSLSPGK
light: DVVMTQSPSSVSASVGDRVTITCRASQSIGSWLAWYQQKPGEAPKLLIYAASTLQRGVPSRFSGGGYGTEFTLTISSLQPEDFATYFCQQSHSHPLTFGGGTKVEIKRTVAAPSVFIFPPSDEQLKSGTASVVCLLNNFYPREAKVQWKVDNALQSGNSQESVTEQDSKDSTYSLSSTLTLSKADYEKHKVYACEVTHQGLSSPVTKSFNRGEC
notes: BCD166-01-01 with the E345R mutation (EU numbering) in the IgG1 Fc; also called BCD166-02-001

Kd (macaca Cynomolgus GITR): 0.542 nM
Kd (macaca mulatta GITR): 0.0924 nM
Kd [1]: 0.0638 nM
binding result (murine GITR-Fc): no binding (tested: 10 µg/ml)
B3: BCD166-01-01 (antibody, human IgG1, kappa)
heavy: not shown
light: B2 light
notes: Full-length human IgG1, kappa; also called BCD166-01-001; BCD166-NHVKITSe13-5-H3-25
